Results: patent US20230117205A1, “B7-H4 ANTIBODY-DRUG CONJUGATES FOR THE TREATMENT OF CANCER” (SEAGEN INC., priority 2021, published 2023)
Values belong to the molecule of their own block, whether it stands above or below them.

What was measured:
[1] = target: hFcγRIIa H131 (biotinylated avi-tagged, fused with monomeric Fc) (human) (UniProt P12318); test: BLI (Octet HTX), biotinylated hFcγRIIa H131 on streptavidin biosensors, ADC in solution, 30 C, 1:1 fit
[2] = target: hFcγRIIIa F158 (biotinylated avi-tagged, fused with monomeric Fc) (human) (UniProt P08637); test: BLI (Octet HTX), biotinylated hFcγRIIIa F158 on streptavidin biosensors, ADC in solution, 30 C, 1:1 fit
human B7-H4 on cells [3] = target: T1, human B7-H4 on cells (human, UniProt Q7Z7D3 25-282); test: IHC on cell pellets, SKBR3 cells that express B7-H4 endogenously
T1 sequence: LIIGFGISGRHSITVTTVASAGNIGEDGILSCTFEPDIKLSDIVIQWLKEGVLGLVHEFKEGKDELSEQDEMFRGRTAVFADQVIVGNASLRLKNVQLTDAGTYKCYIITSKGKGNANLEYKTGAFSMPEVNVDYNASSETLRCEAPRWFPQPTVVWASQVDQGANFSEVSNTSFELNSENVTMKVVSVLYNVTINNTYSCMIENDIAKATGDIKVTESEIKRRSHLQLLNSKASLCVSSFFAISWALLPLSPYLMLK

human B7-H4 on cells [4] = target: T1, human B7-H4 on cells; test: IHC on cell pellets, HCC1569 cells that express B7-H4 endogenously
human B7-H4 on cells [5] = target: T1, human B7-H4 on cells; test: IHC on cell pellets, HCC1954 cells that express B7-H4 endogenously
human B7-H4 on cells [6] = target: T1, human B7-H4 on cells; test: IHC on cell pellets, ZR-75-30 cells that express B7-H4 endogenously
human B7-H4 on cells [7] = target: T1, human B7-H4 on cells; test: IHC on cell pellets, MDA-MB-468 cells that express B7-H4 endogenously
human B7-H4 on cells [8] = target: T1, human B7-H4 on cells; test: cell-based or functional assay
[9] = target: hFcγRI (biotinylated avi-tagged, fused with monomeric Fc) (human) (UniProt P12314); test: BLI (Octet HTX), biotinylated hFcγRI on streptavidin biosensors, antibody in solution, 30 C, 1:1 fit
[10] = target: hFcγRIIb (biotinylated avi-tagged, fused with monomeric Fc) (human) (UniProt P31994); test: BLI (Octet HTX), biotinylated hFcγRIIb on streptavidin biosensors, antibody in solution, 30 C, 1:1 fit
[11] = target: hFcγRIIa R131 (biotinylated avi-tagged, fused with monomeric Fc) (human) (UniProt P12318); test: BLI (Octet HTX), biotinylated hFcγRIIa R131 on streptavidin biosensors, antibody in solution, 30 C, 1:1 fit
[12] = target: hFcγRIIIa F158 (biotinylated avi-tagged, fused with monomeric Fc) (human) (UniProt P08637); test: BLI (Octet HTX), biotinylated hFcγRIIIa F158 on streptavidin biosensors, antibody in solution, 30 C, 1:1 fit
[13] = target: hFcγRIIIa V158 (biotinylated avi-tagged, fused with monomeric Fc) (human) (UniProt P08637); test: BLI (Octet HTX), biotinylated hFcγRIIIa V158 on streptavidin biosensors, antibody in solution, 30 C, 1:1 fit
[14] = target: hscFcRN (biotinylated avi-tagged, fused with monomeric Fc) (human) (UniProt P55899); test: BLI (Octet HTX), biotinylated hscFcRN on streptavidin biosensors, antibody in solution, pH 6.0, 30 C, 1:1 fit

Sequence of hFcγRIIa R131 (biotinylated avi-tagged, fused with monomeric Fc) (human) (P12318 34-217 H167R): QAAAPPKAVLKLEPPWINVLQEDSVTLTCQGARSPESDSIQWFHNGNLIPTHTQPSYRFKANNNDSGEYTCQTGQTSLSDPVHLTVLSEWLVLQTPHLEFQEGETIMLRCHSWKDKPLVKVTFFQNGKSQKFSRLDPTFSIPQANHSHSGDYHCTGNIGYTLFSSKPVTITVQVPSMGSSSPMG
Sequence of hFcγRIIIa V158 (biotinylated avi-tagged, fused with monomeric Fc) (human) (P08637 17-208 F176V): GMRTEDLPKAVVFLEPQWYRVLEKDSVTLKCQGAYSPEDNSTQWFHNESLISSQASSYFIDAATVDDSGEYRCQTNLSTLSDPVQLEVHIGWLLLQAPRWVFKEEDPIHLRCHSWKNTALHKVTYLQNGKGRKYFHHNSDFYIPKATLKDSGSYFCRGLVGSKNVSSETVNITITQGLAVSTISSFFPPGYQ
Sequence of hFcγRIIb (biotinylated avi-tagged, fused with monomeric Fc) (human) (P31994 43-217): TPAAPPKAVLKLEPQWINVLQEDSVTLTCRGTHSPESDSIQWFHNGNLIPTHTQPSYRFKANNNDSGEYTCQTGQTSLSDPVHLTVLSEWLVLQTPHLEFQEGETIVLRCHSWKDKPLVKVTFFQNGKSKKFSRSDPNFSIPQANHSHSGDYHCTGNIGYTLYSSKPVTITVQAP
Sequence of hFcγRI (biotinylated avi-tagged, fused with monomeric Fc) (human) (P12314 16-292): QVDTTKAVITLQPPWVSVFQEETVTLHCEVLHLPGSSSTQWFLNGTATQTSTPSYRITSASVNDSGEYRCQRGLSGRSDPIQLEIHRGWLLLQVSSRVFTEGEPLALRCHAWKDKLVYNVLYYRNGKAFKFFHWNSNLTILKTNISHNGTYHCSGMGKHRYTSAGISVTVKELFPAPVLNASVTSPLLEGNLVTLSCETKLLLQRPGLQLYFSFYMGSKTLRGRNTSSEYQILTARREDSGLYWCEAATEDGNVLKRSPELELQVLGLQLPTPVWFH

Kd [1]: 4.2 µM | Kd [2]: 10.4 µM
Molecule: SGN-B7H4V (antibody)

intensity score (human B7-H4 on cells [3]): 3 | intensity score (human B7-H4 on cells [4]): 3 | intensity score (human B7-H4 on cells [5]): 2 | intensity score (human B7-H4 on cells [6]): 1 | intensity score (human B7-H4 on cells [7]): 3
Molecule: anti-B7-H4 antibody clone D1M8I

Molecule: non-binding control ADC (antibody)
x50 (ng/mL), in vitro cytotoxicity, MDA-MB-468, 96 h, 3D spheroid, CellTiter-Glo (human B7-H4 on cells [8]): > 1000 ng/mL | x50 (ng/mL), in vitro cytotoxicity, MX1, 96 h, 3D spheroid, CellTiter-Glo (human B7-H4 on cells [8]): > 1000 ng/mL | x50 (ng/mL), in vitro cytotoxicity, SKBR3, 96 h, 3D spheroid, CellTiter-Glo (human B7-H4 on cells [8]): > 1000 ng/mL

Kd [9]: 0.0018 µM | Kd [10]: 29 µM | Kd [11]: 3.1 µM | Kd [12]: 4.8 µM | Kd [13]: 0.78 µM | Kd [14]: 0.0103 µM
Molecule: positive control mAb (the anti-CD70 mAb h1F6) (antibody)

apparent half-life of the increase of fluorescent signal (internalization, quenched fluorophore assay on SKBR3 and MX-1 cells) (human B7-H4 on cells [8]): 3.2 to 4.9 h
B1: B7H41001 mAb quenched fluorophore conjugate (antibody, human IgG1, kappa, V domains shown)
VH: QLQLQESGPGLVKPSETLSLTCTVSGGSIKSGSYYWGWIRQPPGKGLEWIGNIYYSGSTYYNPSLRSRVTISVDTSKNQFSLKLSSVTAADTAVYYCAREGSYPNQFDPWGQGTLVTVSS
VL: EIVMTQSPATLSVSPGERATLSCRASQSVSSNLAWYQQKPGQAPRLLIYGASTRATGIPARFSGSGSGTEFTLTISSLQSEDFAVYYCQQYHSFPFTFGGGTKVEIKR
modifications: Cy5 dye and quencher pair attached by the same vc linker as in SGN-B7H4V; sites not stated
